± gives the standard deviation of the averaged measurements.
B1: library; a variant is named by its letters at N, in order (parent)
chain: GCUGUCACCGGUGCUUGGUACGUUAUAUUCAGCCGGUCUGAUGAGUCUNNNNNNAGACGAAACAGC

Experiments:
[1] = variants of: B1; assay: FACS-Seq fitted mean relative fluorescence mCherry/BFP without ligand (log10 relative fluorescence); HEK293T overexpressing SLC46A1; higher = higher reporter protein expression; details: without (6R,S)-folinic acid; ligand present: no
How it was run: (§1)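 Sorting into 6 bins by mCherry/BFP followed 48 h of incubation with or without ligand. The cells were enriched HEK293T libraries lentivirally bearing an mCherry reporter with the ribozyme switch and an EF1α-BFP marker, and bin genomic DNA was PCR-amplified, barcoded and sequenced on MiSeq. Fluorescence is the fitted normal mean of the bin counts. Means were fitted on log10(mCherry/BFP), scaled to five spiked-in control ribozymes.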

[2] = variants of: B1; assay: normalized RNA/DNA level without ligand (relative to sTRSVctl = 100) (log10 (% of sTRSVctl)); HEK293T overexpressing SLC46A1; higher = less ribozyme self-cleavage, higher mRNA level; details: without (6R,S)-folinic acid; ligand present: no
How it was run: (§2)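 Library plasmids carrying ribozyme switches linked to mCherry, or to eGFP in some ligand experiments, were transfected into HEK293T at 4 µg per 6-well well, with any ligand added 1 h earlier. Seventy-two hours on, total RNA was extracted with EDTA and reverse-transcribed, amplified, barcoded and sequenced. RNA level was RNA over DNA reads normalized to a spiked-in non-cleaving sequence or to the top sequences, then scaled and log-transformed. The top set was 25 sequences, the transform was ×100 and log10, and sequences needed ≥100 DNA reads.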

[3] = variants of: B1; assay: FACS-Seq fitted mean relative fluorescence mCherry/BFP with ligand (log10 relative fluorescence); HEK293T overexpressing SLC46A1; ligand concentration (+) FACS-Seq: 6 mM; higher = higher reporter protein expression; details: with (6R,S)-folinic acid; ligand present: yes
How it was run: as §1

[4] = variants of: B1; assay: normalized RNA/DNA level with ligand (relative to sTRSVctl = 100) (log10 (% of sTRSVctl)); HEK293T overexpressing SLC46A1; ligand concentration (+) RNA-Seq: 6 mM; higher = less ribozyme self-cleavage, higher mRNA level; details: with (6R,S)-folinic acid; ligand present: yes
How it was run: as §2

Row | Variant | FACS-Seq fitted mean (log10) [1] | normalized RNA/DNA level without ligand (log10) [2] | FACS-Seq fitted mean (log10) [3] | normalized RNA/DNA level with ligand (log10) [4]
1 | AGUUCA | 0.161 ± 0.15 | 2.005 ± 0.006 | -0.01 ± 0.41 | 2.008 ± 0.012
2 | AGUACG | 0.0935 ± 0.062 | 1.935 ± 0.0077 | -0.00576 ± 0.14 | 2.03 ± 0.045
3 | AGGUGU | 0.0941 ± 0.074 | 1.954 ± 0.015 | 0.266 ± 0.017 | 2.0099 ± 0.00041
4 | AGUGAU | 0.213 ± 0.04 | 1.972 ± 0.016 | 0.178 ± 0.14 | 1.996 ± 0.0024
5 | CGUAUA | 0.0787 ± 0.09 | 1.93 ± 0.025 | 0.189 ± 0.17 | 1.983 ± 0.016
6 | CGUAUU | -0.147 ± 0.033 | 2.034 ± 0.011 | 0.0205 ± 0.0068 | 2.03 ± 0.037
7 | UGUACU | 0.366 ± 0.027 | 1.99 ± 0.026 | 0.253 ± 0.17 | 2.021 ± 0.0023
8 | AGUUGA | 0.17 ± 0.13 | 1.964 ± 0.015 | 0.105 ± 0.028 | 2.018 ± 0.016
9 | AGUUGU | 0.3648 ± 0.0018 | 1.962 ± 0.012 | 0.521 ± 0.35 | 2.04 ± 0.028
10 | AGUUGC | 0.455 ± 0.088 | 2.001 ± 0.0034 | 0.705 ± 0.23 | 2.03 ± 0.016
11 | AGUAAA | 0.22 ± 0.14 | 1.954 ± 0.013 | 0.344 ± 0.14 | 1.98 ± 0.041
12 | UGUGUG | 0.164 ± 0.26 | 1.591 ± 0.003 | 0.393 ± 0.24 | 1.94 ± 0.062
13 | UGUGUA | 0.429 ± 0.1 | 1.895 ± 0.0065 | 0.399 ± 0.015 | 2.01 ± 0.021
14 | CGGUUA | 0.594 ± 0.087 | 1.9899 ± 0.00027 | 0.531 ± 0.12 | 2.02 ± 0.056
15 | GUACAC | 0.175 ± 0.17 | 1.984 ± 0.01 | 0.311 ± 0.16 | 2.029 ± 0.019
16 | GUACAG | 0.519 ± 0.15 | 1.938 ± 0.018 | 0.81 ± 0.0085 | 2 ± 0.024
17 | GGUAAG | 0.539 ± 0.082 | 1.919 ± 0.0032 | 0.424 ± 0.051 | 2 ± 0.036
18 | GGUAAU | 0.342 ± 0.044 | 1.992 ± 0.015 | 0.504 ± 0.12 | 2.03 ± 0.043
19 | GGUAAA | 0.462 ± 0.11 | 1.979 ± 0.014 | 0.474 ± 0.38 | 2 ± 0.03
20 | GUACGA | 0.269 ± 0.031 | 2.0027 ± 0.0013 | 0.139 ± 0.31 | 2.04 ± 0.051
21 | GUACGG | 0.245 ± 0.024 | 1.953 ± 0.0076 | 0.584 ± 0.19 | 2.03 ± 0.032
22 | GGUCCA | 0.532 ± 0.025 | 2.029 ± 0.0028 | 0.724 ± 0.15 | 2.01 ± 0.07
23 | AUAAGG | 0.0495 ± 0.016 | 1.882 ± 0.011 | 0.356 ± 0.25 | 1.99 ± 0.012
24 | AUAAGC | 0.38 ± 0.1 | 2.003 ± 0.0058 | 0.792 ± 0.04 | 2.02 ± 0.042

Row | Variant | FACS-Seq fitted mean (log10) [1] | normalized RNA/DNA level without ligand (log10) [2] | FACS-Seq fitted mean (log10) [3] | normalized RNA/DNA level with ligand (log10) [4]
25 | AUAAGU | 0.346 ± 0.17 | 1.88 ± 0.024 | 0.682 ± 0.15 | 2.01 ± 0.044
26 | GUAAAC | 0.139 ± 0.033 | 1.965 ± 0.0075 | 0.507 ± 0.47 | 2.04 ± 0.0061
27 | GUAAAA | 0.0987 ± 0.013 | 1.998 ± 0.0036 | -0.0576 ± 0.026 | 1.96 ± 0.046
28 | GUAAAU | 0.332 ± 0.13 | 1.971 ± 0.0055 | 0.464 ± 0.033 | 2.003 ± 0.0095
29 | GGUUGC | 0.472 ± 0.12 | 1.932 ± 0.0076 | 0.388 ± 0.059 | 1.9808 ± 0.0018
30 | GGUUGA | 0.168 ± 0.043 | 2.083 ± 0.0081 | -0.309 ± 0.06 | 2.07 ± 0.031
31 | UUACCC | 0.388 ± 0.015 | 2.018 ± 0.015 | 0.263 ± 0.21 | 2.01 ± 0.03
32 | UUAAUA | 0.0221 ± 0.032 | 2.006 ± 0.0071 | 0.171 ± 1.6 | 2.02 ± 0.022
33 | UUAAUG | 0.316 ± 0.0067 | 1.819 ± 0.0065 | 0.461 ± 0.14 | 1.97 ± 0.012
34 | AUACCA | -0.158 ± 0.032 | 2.036 ± 0.01 | -0.268 ± 0.23 | 2.01 ± 0.043
35 | UGUGAG | 0.269 ± 0.082 | 1.6 ± 0.0064 | 0.649 ± 0.03 | 1.906 ± 0.0071
36 | UGUGAA | 0.186 ± 0.034 | 1.899 ± 0.015 | 0.243 ± 0.25 | 1.984 ± 0.012
37 | UGUCGG | 0.0192 ± 0.057 | 1.66 ± 0.015 | 0.166 ± 0.29 | 1.94 ± 0.043
38 | UGUCGU | 0.152 ± 0.076 | 1.95 ± 0.012 | 0.267 ± 0.017 | 2 ± 0.021
39 | CUAGGC | 0.0076 ± 0.12 | 2.005 ± 0.0013 | 0.186 ± 0.24 | 2 ± 0.028
40 | AUAACU | -0.545 ± 0.34 | 2.009 ± 0.007 | -0.619 ± 0.76 | 2.02 ± 0.038
41 | AUAACA | 0.394 ± 0.16 | 2 ± 0.017 | 0.263 ± 0.35 | 1.98 ± 0.033
42 | AUAACC | -0.122 ± 0.045 | 2.011 ± 0.015 | -0.194 ± 0.26 | 2 ± 0.034
43 | GGUGGA | 0.534 ± 0.074 | 2.054 ± 0.01 | 0.58 ± 0.079 | 2.06 ± 0.062
44 | GUAAGG | 0.183 ± 0.078 | 1.946 ± 0.015 | 0.381 ± 0.047 | 2.025 ± 0.015
45 | GUAAGC | 0.239 ± 0.059 | 1.896 ± 0.0061 | 0.33 ± 0.072 | 2.01 ± 0.013
46 | AUAAUA | 0.469 ± 0.017 | 1.982 ± 0.0023 | 0.369 ± 0.62 | 1.992 ± 0.015
47 | CGUGAC | 0.241 ± 0.037 | 2.015 ± 0.01 | 0.201 ± 0.09 | 1.99 ± 0.052
48 | CGUGAA | 0.328 ± 0.19 | 1.9509 ± 0.0012 | 0.192 ± 0.33 | 2.01 ± 0.028

Row | Variant | FACS-Seq fitted mean (log10) [1] | normalized RNA/DNA level without ligand (log10) [2] | FACS-Seq fitted mean (log10) [3] | normalized RNA/DNA level with ligand (log10) [4]
49 | AGUCGA | 0.3437 ± 0.0018 | 1.974 ± 0.012 | 0.506 ± 0.09 | 2.021 ± 0.0067
50 | AGUCGU | 0.209 ± 0.14 | 1.979 ± 0.013 | -0.0314 ± 0.084 | 2.03 ± 0.029
51 | UGUAGG | 0.342 ± 0.083 | 1.61 ± 0.018 | 0.855 ± 0.1 | 1.92 ± 0.033
52 | UGUAGC | 0.389 ± 0.16 | 1.907 ± 0.01 | 0.362 ± 0.049 | 1.988 ± 0.016
53 | GGUAGU | 0.312 ± 0.15 | 1.988 ± 0.0021 | 0.316 ± 0.16 | 2.01 ± 0.055
54 | GUAACC | 0.499 ± 0.17 | 2.059 ± 0.0095 | 0.419 ± 0.081 | 2.053 ± 0.017
55 | UGUUGG | -0.0684 ± 0.078 | 1.53 ± 0.048 | 0.426 ± 0.024 | 1.88 ± 0.042
56 | UGUUGA | 0.32 ± 0.026 | 1.837 ± 0.015 | 0.463 ± 0.13 | 2.01 ± 0.035
57 | UGUUUG | 0.222 ± 0.04 | 1.794 ± 0.0043 | 0.62 ± 0.05 | 2.01 ± 0.025
58 | UGUUUU | 0.296 ± 0.18 | 1.985 ± 0.0066 | 0.546 ± 0.13 | 2.03 ± 0.023
59 | CUAGAU | 0.368 ± 0.079 | 1.957 ± 0.0032 | 0.387 ± 0.061 | 2 ± 0.028
60 | AUAGAC | 0.4594 ± 0.0035 | 1.968 ± 0.0041 | 0.536 ± 0.13 | 1.98 ± 0.017
61 | AUAGAU | 0.365 ± 0.1 | 1.925 ± 0.011 | 0.406 ± 0.1 | 2 ± 0.054
62 | AUAGAG | 0.0276 ± 0.0023 | 1.52 ± 0.0028 | 0.431 ± 0.14 | 1.89 ± 0.034
63 | GGUUAG | 0.215 ± 0.017 | 1.982 ± 0.016 | 0.245 ± 0.13 | 2 ± 0.035
64 | GGUUAU | 0.612 ± 0.021 | 1.989 ± 0.019 | 0.481 ± 0.077 | 1.98 ± 0.023
65 | AUACAA | 0.428 ± 0.07 | 1.974 ± 0.0047 | 0.215 ± 0.014 | 1.99 ± 0.035
66 | AUACAU | 0.534 ± 0.18 | 1.96 ± 0.022 | 0.452 ± 0.056 | 2.017 ± 0.02
67 | AUACAG | 0.453 ± 0.1 | 1.9374 ± 0.0012 | 0.394 ± 0.44 | 2 ± 0.028
68 | UGUAAU | 0.41 ± 0.068 | 1.886 ± 0.0076 | 0.35 ± 0.072 | 1.994 ± 0.0024
69 | UGUAAG | 0.295 ± 0.0061 | 1.666 ± 0.0027 | 0.624 ± 0.062 | 1.94 ± 0.033
70 | UGUAAA | 0.596 ± 0.02 | 1.924 ± 0.0087 | 0.761 ± 0.19 | 1.993 ± 0.0085
71 | GGUGAC | 0.359 ± 0.087 | 2.027 ± 0.008 | 0.217 ± 0.074 | 2.01 ± 0.037
